The results in this text go back to patent EP4775595A1.

pKd: −log10 of the molar value.

Assay [1] concerns the target human IGF-1R on human non-small cell lung cancer cells (A549) (human) (UniProt P08069). The experiment in a line: cell-based or functional assay.
Assay [2] addresses hIGF-1R-ECD-avi-his (human IGF-1R extracellular region) (human) (UniProt P08069). Nature of the assay: SPR (Biacore T200), antigen captured by anti-His antibody on CM5 chip, antibody as analyte.

hIGF-1R-ECD-avi-his (human IGF-1R extracellular region) (human), sequence (P08069 other isoform, or with tags, fused parts or gaps limits assumed): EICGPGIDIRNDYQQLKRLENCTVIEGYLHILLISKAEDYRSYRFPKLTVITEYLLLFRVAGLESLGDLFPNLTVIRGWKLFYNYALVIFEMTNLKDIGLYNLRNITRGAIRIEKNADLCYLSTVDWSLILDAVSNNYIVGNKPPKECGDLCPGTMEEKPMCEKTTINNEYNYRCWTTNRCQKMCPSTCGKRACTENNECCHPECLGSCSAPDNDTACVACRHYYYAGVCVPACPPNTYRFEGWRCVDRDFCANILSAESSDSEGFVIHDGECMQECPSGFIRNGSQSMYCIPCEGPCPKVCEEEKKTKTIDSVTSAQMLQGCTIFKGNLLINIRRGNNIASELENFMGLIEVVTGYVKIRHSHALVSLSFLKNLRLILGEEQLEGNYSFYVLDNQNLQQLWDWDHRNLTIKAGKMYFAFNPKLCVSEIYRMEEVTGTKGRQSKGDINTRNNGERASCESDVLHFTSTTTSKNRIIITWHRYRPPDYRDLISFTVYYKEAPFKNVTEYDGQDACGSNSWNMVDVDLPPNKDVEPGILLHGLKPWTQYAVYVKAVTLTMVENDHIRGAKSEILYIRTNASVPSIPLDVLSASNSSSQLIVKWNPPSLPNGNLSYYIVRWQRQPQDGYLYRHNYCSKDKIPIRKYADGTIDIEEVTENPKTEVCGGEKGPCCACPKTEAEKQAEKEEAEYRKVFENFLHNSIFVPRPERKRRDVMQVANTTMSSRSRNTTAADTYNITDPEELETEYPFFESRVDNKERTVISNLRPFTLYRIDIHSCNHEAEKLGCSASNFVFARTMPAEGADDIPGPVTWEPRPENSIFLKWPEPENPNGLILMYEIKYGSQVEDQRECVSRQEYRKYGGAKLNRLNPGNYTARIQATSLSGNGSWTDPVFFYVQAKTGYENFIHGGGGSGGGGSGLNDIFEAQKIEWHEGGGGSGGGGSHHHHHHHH
human IGF-1R on human non-small cell lung cancer cells (A549) (human), sequence (P08069 31-1367): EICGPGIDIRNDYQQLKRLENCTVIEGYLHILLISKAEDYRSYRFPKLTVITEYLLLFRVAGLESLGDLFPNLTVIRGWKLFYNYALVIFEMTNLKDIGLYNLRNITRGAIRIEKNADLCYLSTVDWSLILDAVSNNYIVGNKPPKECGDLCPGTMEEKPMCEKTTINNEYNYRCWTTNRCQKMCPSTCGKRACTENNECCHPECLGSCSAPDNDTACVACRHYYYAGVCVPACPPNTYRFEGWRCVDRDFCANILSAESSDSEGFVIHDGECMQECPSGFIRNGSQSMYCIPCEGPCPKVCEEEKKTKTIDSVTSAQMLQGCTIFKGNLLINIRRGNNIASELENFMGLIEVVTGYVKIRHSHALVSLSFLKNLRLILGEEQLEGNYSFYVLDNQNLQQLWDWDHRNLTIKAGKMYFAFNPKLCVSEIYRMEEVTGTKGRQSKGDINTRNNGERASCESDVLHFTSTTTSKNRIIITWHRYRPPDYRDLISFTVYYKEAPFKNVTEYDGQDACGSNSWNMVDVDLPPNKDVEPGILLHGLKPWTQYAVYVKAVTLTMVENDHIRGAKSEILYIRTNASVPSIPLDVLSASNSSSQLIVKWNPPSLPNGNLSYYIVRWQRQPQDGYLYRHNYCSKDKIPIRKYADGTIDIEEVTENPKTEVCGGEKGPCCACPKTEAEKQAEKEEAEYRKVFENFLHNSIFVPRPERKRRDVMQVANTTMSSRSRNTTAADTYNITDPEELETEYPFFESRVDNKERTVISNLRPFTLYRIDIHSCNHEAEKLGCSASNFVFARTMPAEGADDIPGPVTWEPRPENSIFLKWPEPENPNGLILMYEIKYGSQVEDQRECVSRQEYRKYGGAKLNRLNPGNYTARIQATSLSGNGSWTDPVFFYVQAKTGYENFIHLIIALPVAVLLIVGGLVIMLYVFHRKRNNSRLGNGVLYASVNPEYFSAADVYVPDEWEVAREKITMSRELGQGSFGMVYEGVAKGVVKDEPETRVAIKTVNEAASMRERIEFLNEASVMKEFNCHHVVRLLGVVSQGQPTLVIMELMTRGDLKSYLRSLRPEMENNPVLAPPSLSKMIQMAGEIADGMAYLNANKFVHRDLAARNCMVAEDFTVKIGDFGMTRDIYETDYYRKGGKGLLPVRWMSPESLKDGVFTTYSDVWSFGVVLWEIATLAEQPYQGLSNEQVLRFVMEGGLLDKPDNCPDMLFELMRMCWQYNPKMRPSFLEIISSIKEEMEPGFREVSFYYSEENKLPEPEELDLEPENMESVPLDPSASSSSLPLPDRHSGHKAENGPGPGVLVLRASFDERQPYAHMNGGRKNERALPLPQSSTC

One may read the pKd as the negative decadic logarithm of the Kd, by convention in mol/L. Read a high pKd as a low Kd. Usually koff stands for a measure of how fast the partners let go of each other. A high value points to fast dissociation. Usually kon stands for the second-order rate constant of association. Higher therefore signals fast association. Consider “VRDN-001 (Viridian, WO2023019171) (antibody)”, for which the IC50 (nM), inhibition of IGF1-induced pAKT signaling in A549 cells in assay [1] worked out at 0.716 nM. Moreover, in assay [2], the pKd is 10.76, the koff came out at 1.47e-05 s⁻¹ and the kon was determined as 839000 M⁻¹ s⁻¹.
In assay [2], “Tepezza (Horizon, US2022356257) (antibody)” showed a pKd of 9.57, a koff of 0.00109 s⁻¹ and a kon of 4.08e+06 M⁻¹ s⁻¹.
